# From US20230095979A1 (NANTONG YICHEN BIOPHARMA, published 2023)
# Where a chain is given by its changes, count along the chain named.
# B1: hC5a-35 phage (scFv)
# scFv: DIQMTQSPSSLSASVGDRVTITCQASQDISNYLNWYQQKPGKAPKLLIYDASNLETGVPSRFSGSGSGTDFTFTIRSLQPEDIATYYCQQYDNLPPWTFGQGTKVEIKGGSSRSSSSGGGGSGGGGEVQLVESGGGLVEPGRSLRLSCTASGYTFGDYAMSWFRQAPGKDLEWVGFIRSKAYGGTTEYAASVKGRFTISRDDSKSIAYLQMNSLKTEDTAVYYCTRAGNDDQYFDYWGQGTQVTVSS
# notes: also called hC5a-35scfv; hC5a-35 scfv
# B2: 64UV63 phage (scFv)
# scFv: ELTLTQSPAFMSATPGDKVNISCKGSQDIDDNMNWYQQKPGEAIIFIIQEATTLVPGIPPRFSGSGYGTDFTLTINNIESEDAAYYFCLQHDNFPPYTFGQGTKLEIKGGSSRSSSSGGGGSGGGGQVQLQESGGGLVQPGGSLRLSCAASGFTFSSYEMNWVRQAPGKGLEWVSYISSSGSTIYYADSVKGRFTISRDNAKNSLYLQMNSLRAEDTAVYYCARDLGGFDPWGQGTLVTASS
# notes: also called 64UV63 scFv
# Key:
# [1] = biological target: T1, hC5a with 6xHis tag (human, UniProt P01031 678-751); assay: monoclonal phage panning on coated antigen; ratio of output CFU with and without UV crosslinking
# T1 construct: also called WT hC5a; WT-hC5a
# T1 sequence: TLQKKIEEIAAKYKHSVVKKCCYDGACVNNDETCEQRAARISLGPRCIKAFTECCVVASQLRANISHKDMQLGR
# [2] = biological target: T2, Val18pBpa mutant of hC5a (human, UniProt P01031 678-751, not fully specified; p-benzoyl-L-phenylalanine (pBpa) at 18); assay: as above
# T2 construct: X stands for pBpa
# T2 chain: T1 sequence with V18X
# [3] = biological target: IL1β 64pBpa mutant (human) (UniProt P01584); assay: as above
# [4] = biological target: IL1β 64pBpa mutant (human) (UniProt P01584); assay: monoclonal phage panning on coated antigen, no UV, competitive/low-pH washes, trypsin release, colony count
# [5] = biological target: T3, IL1β WT with 6xHis tag (human, UniProt P01584 117-269); assay: monoclonal phage panning on coated antigen; ratio of output CFU with and without UV crosslinking
# T3 construct: Expressed in E. coli from pET28a with a C-terminal 6xHis tag; about 19 kDa on SDS-PAGE; also called WT IL1β; wild-type IL1β
# From the text: Colony Forming Unit (CFU) was counted, and finally the positive clones(hits) were picked.
# After elution, the output CFUs of UV and non-UV-treated groups were counted and compared.
# [6] = biological target: IL1β 64pBpa mutant (human) (UniProt P01584); assay: monoclonal phage panning on coated antigen, UV 365 nm, competitive/low-pH washes, trypsin release, colony count
Binder,UV-treated output CFU/Non-UV-treated output CFU [1],UV-treated output CFU/Non-UV-treated output CFU [2],UV-treated output CFU/Non-UV-treated output CFU [3],Non-UV-treated output CFU [4],UV-treated output CFU/Non-UV-treated output CFU [5],UV-treated output CFU [6]
B1,1.1 ratio,3.3 ratio,,,,
B2,,,6.4,22 CFU,1.1 ratio,140 CFU
